Where a chain is given by its changes, count along the chain named. *1 amine or outer side, *2 acyl side, *3 side chain or, on linkers, in order; H or OH if unused. Where no end group is shown, it is not given here. Side-chain parts run from the residue outwards. [ ]: non-standard residue; d: D form. The star is where a group is joined. C20 diacid = O=C(O)CCCCCCCCCCCCCCCCCCC(=O)*; C18 diacid = O=C(O)CCCCCCCCCCCCCCCCC(=O)*; γGlu = O=C(O)[C@H](CCC(=O)[*:2])N[*:1]; AEEA = NCCOCCOCC(=O)O; Aib = CC(C)(N)C(=O)O
T1: human GLP-2 receptor (hGLP2-R) (human, UniProt O95838 1-553)
T1 sequence (looked up): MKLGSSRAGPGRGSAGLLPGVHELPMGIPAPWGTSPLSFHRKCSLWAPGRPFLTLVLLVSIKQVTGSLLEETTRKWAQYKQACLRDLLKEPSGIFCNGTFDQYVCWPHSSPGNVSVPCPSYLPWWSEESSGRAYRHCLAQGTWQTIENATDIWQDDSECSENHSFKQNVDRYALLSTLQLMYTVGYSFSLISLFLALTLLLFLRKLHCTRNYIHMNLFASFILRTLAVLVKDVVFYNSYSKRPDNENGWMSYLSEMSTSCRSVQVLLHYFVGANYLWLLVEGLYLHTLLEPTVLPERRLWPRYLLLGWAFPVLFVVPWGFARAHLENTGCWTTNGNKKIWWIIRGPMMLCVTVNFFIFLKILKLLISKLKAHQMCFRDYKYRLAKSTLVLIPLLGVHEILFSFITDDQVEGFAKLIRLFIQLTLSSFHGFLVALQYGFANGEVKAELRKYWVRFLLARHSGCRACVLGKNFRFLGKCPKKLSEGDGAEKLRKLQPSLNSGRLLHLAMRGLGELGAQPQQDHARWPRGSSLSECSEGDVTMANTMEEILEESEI

B1: Compound 61 (peptide)
peptide: H-H[Aib]EGSFTSELATILEGK([AEEA-Lys-Glu-Lys-γGlu-C20 diacid])AARDFIAWLIEHKITD-OH
B2: Compound 62 (peptide)
peptide: H-H[Aib]EGSFTSELATILDAK([AEEA-Lys-Glu-Lys-γGlu-C20 diacid])AARDFIAWLIEHKITD-OH
B3: Compound 3 (peptide)
peptide: HXEGTFTSELATILDXEAARDFIAWLIEHKITD
HELM: PEPTIDE1{H.[Aib].E.G.T.F.T.S.E.L.A.T.I.L.D.K.E.A.A.R.D.F.I.A.W.L.I.E.H.K.I.T.D}|PEPTIDE2{[O=C(O)CCCCCCCCCCCCCCCCC(=O)[*:2]].[gGlu]}$PEPTIDE1,PEPTIDE2,16:R3-2:R2$$$V2.0
SMILES: CC[C@H](C)[C@H](NC(=O)[C@H](Cc1ccccc1)NC(=O)[C@H](CC(=O)O)NC(=O)[C@H](CCCNC(=N)N)NC(=O)[C@H](C)NC(=O)[C@H](C)NC(=O)[C@H](CCC(=O)O)NC(=O)[C@H](CCCCNC(=O)CC[C@H](NC(=O)CCCCCCCCCCCCCCCCC(=O)O)C(=O)O)NC(=O)[C@H](CC(=O)O)NC(=O)[C@H](CC(C)C)NC(=O)[C@@H](NC(=O)[C@@H](NC(=O)[C@H](C)NC(=O)[C@H](CC(C)C)NC(=O)[C@H](CCC(=O)O)NC(=O)[C@H](CO)NC(=O)[C@@H](NC(=O)[C@H](Cc1ccccc1)NC(=O)[C@@H](NC(=O)CNC(=O)[C@H](CCC(=O)O)NC(=O)C(C)(C)NC(=O)[C@@H](N)Cc1c[nH]cn1)[C@@H](C)O)[C@@H](C)O)[C@@H](C)O)[C@@H](C)CC)C(=O)N[C@@H](C)C(=O)N[C@@H](Cc1c[nH]c2ccccc12)C(=O)N[C@@H](CC(C)C)C(=O)N[C@H](C(=O)N[C@@H](CCC(=O)O)C(=O)N[C@@H](Cc1c[nH]cn1)C(=O)N[C@@H](CCCCN)C(=O)N[C@H](C(=O)N[C@H](C(=O)N[C@@H](CC(=O)O)C(=O)O)[C@@H](C)O)[C@@H](C)CC)[C@@H](C)CC
B4: Compound 63 (peptide)
peptide: H-H[Aib]EGSFTSELATILDAK([AEEA-AEEA-Lys-Glu-Lys-γGlu-C20 diacid])AARDFIAWLIEHKITD-OH
B5: Compound 64 (peptide)
peptide: H-H[Aib]EGSFTSELATILDEQAAK([AEEA-Lys-Glu-Lys-γGlu-C20 diacid])DFIAWLIEHKITD-OH
B6: Compound 65 (peptide)
peptide: H-H[Aib]EGTFTSELATILDEQAAK([AEEA-Lys-Glu-Lys-γGlu-C20 diacid])DFIAWLIEHKITD-OH
B7: Compound 66 (peptide)
peptide: H-H[Aib]EGSFTSELATILDEQAAK([AEEA-AEEA-Lys-Glu-Lys-γGlu-C20 diacid])DFIAWLIEHKITD-OH
B8: Compound 67 (peptide)
peptide: H-H[Aib]EGTFTSELATILDEQAAK([AEEA-AEEA-Lys-Glu-Lys-γGlu-C20 diacid])DFIAWLIEHKITD-OH
B9: Compound 68 (peptide)
peptide: H-H[Aib]EGSFTSELATILDAKAAK([AEEA-Lys-Glu-Lys-γGlu-C20 diacid])DFIAWLIEHKITD-OH
B10: Compound 4 (peptide)
peptide: H[Aib]EGTFSSELATILDK([γGlu-C18 diacid])KAARDFIAWLIEHKITD-OH
B11: Compound 5 (peptide)
peptide: B3 peptide with T5S, E17K
HELM: PEPTIDE1{H.[Aib].E.G.S.F.T.S.E.L.A.T.I.L.D.K.K.A.A.R.D.F.I.A.W.L.I.E.H.K.I.T.D}|PEPTIDE2{[O=C(O)CCCCCCCCCCCCCCCCC(=O)[*:2]].[gGlu]}$PEPTIDE1,PEPTIDE2,16:R3-2:R2$$$V2.0
SMILES: CC[C@H](C)[C@H](NC(=O)[C@H](Cc1ccccc1)NC(=O)[C@H](CC(=O)O)NC(=O)[C@H](CCCNC(=N)N)NC(=O)[C@H](C)NC(=O)[C@H](C)NC(=O)[C@H](CCCCN)NC(=O)[C@H](CCCCNC(=O)CC[C@H](NC(=O)CCCCCCCCCCCCCCCCC(=O)O)C(=O)O)NC(=O)[C@H](CC(=O)O)NC(=O)[C@H](CC(C)C)NC(=O)[C@@H](NC(=O)[C@@H](NC(=O)[C@H](C)NC(=O)[C@H](CC(C)C)NC(=O)[C@H](CCC(=O)O)NC(=O)[C@H](CO)NC(=O)[C@@H](NC(=O)[C@H](Cc1ccccc1)NC(=O)[C@H](CO)NC(=O)CNC(=O)[C@H](CCC(=O)O)NC(=O)C(C)(C)NC(=O)[C@@H](N)Cc1c[nH]cn1)[C@@H](C)O)[C@@H](C)O)[C@@H](C)CC)C(=O)N[C@@H](C)C(=O)N[C@@H](Cc1c[nH]c2ccccc12)C(=O)N[C@@H](CC(C)C)C(=O)N[C@H](C(=O)N[C@@H](CCC(=O)O)C(=O)N[C@@H](Cc1c[nH]cn1)C(=O)N[C@@H](CCCCN)C(=O)N[C@H](C(=O)N[C@H](C(=O)N[C@@H](CC(=O)O)C(=O)O)[C@@H](C)O)[C@@H](C)CC)[C@@H](C)CC
B12: Compound 6 (peptide)
peptide: H[Aib]EGTFTSELATILDK([γGlu-C18 diacid])KAARDFIAWLIEHKITD-OH
B13: Compound 7 (peptide)
peptide: B3 peptide with T7S, X16G, E17X
HELM: PEPTIDE1{H.[Aib].E.G.T.F.S.S.E.L.A.T.I.L.D.G.K.A.A.R.D.F.I.A.W.L.I.E.H.K.I.T.D}|PEPTIDE2{[O=C(O)CCCCCCCCCCCCCCCCC(=O)[*:2]].[gGlu]}$PEPTIDE1,PEPTIDE2,17:R3-2:R2$$$V2.0
SMILES: CC[C@H](C)[C@H](NC(=O)[C@H](Cc1ccccc1)NC(=O)[C@H](CC(=O)O)NC(=O)[C@H](CCCNC(=N)N)NC(=O)[C@H](C)NC(=O)[C@H](C)NC(=O)[C@H](CCCCNC(=O)CC[C@H](NC(=O)CCCCCCCCCCCCCCCCC(=O)O)C(=O)O)NC(=O)CNC(=O)[C@H](CC(=O)O)NC(=O)[C@H](CC(C)C)NC(=O)[C@@H](NC(=O)[C@@H](NC(=O)[C@H](C)NC(=O)[C@H](CC(C)C)NC(=O)[C@H](CCC(=O)O)NC(=O)[C@H](CO)NC(=O)[C@H](CO)NC(=O)[C@H](Cc1ccccc1)NC(=O)[C@@H](NC(=O)CNC(=O)[C@H](CCC(=O)O)NC(=O)C(C)(C)NC(=O)[C@@H](N)Cc1c[nH]cn1)[C@@H](C)O)[C@@H](C)O)[C@@H](C)CC)C(=O)N[C@@H](C)C(=O)N[C@@H](Cc1c[nH]c2ccccc12)C(=O)N[C@@H](CC(C)C)C(=O)N[C@H](C(=O)N[C@@H](CCC(=O)O)C(=O)N[C@@H](Cc1c[nH]cn1)C(=O)N[C@@H](CCCCN)C(=O)N[C@H](C(=O)N[C@H](C(=O)N[C@@H](CC(=O)O)C(=O)O)[C@@H](C)O)[C@@H](C)CC)[C@@H](C)CC
B14: Compound 8 (peptide)
peptide: B3 peptide with T5S, X16G, E17X
HELM: PEPTIDE1{H.[Aib].E.G.S.F.T.S.E.L.A.T.I.L.D.G.K.A.A.R.D.F.I.A.W.L.I.E.H.K.I.T.D}|PEPTIDE2{[O=C(O)CCCCCCCCCCCCCCCCC(=O)[*:2]].[gGlu]}$PEPTIDE1,PEPTIDE2,17:R3-2:R2$$$V2.0
SMILES: CC[C@H](C)[C@H](NC(=O)[C@H](Cc1ccccc1)NC(=O)[C@H](CC(=O)O)NC(=O)[C@H](CCCNC(=N)N)NC(=O)[C@H](C)NC(=O)[C@H](C)NC(=O)[C@H](CCCCNC(=O)CC[C@H](NC(=O)CCCCCCCCCCCCCCCCC(=O)O)C(=O)O)NC(=O)CNC(=O)[C@H](CC(=O)O)NC(=O)[C@H](CC(C)C)NC(=O)[C@@H](NC(=O)[C@@H](NC(=O)[C@H](C)NC(=O)[C@H](CC(C)C)NC(=O)[C@H](CCC(=O)O)NC(=O)[C@H](CO)NC(=O)[C@@H](NC(=O)[C@H](Cc1ccccc1)NC(=O)[C@H](CO)NC(=O)CNC(=O)[C@H](CCC(=O)O)NC(=O)C(C)(C)NC(=O)[C@@H](N)Cc1c[nH]cn1)[C@@H](C)O)[C@@H](C)O)[C@@H](C)CC)C(=O)N[C@@H](C)C(=O)N[C@@H](Cc1c[nH]c2ccccc12)C(=O)N[C@@H](CC(C)C)C(=O)N[C@H](C(=O)N[C@@H](CCC(=O)O)C(=O)N[C@@H](Cc1c[nH]cn1)C(=O)N[C@@H](CCCCN)C(=O)N[C@H](C(=O)N[C@H](C(=O)N[C@@H](CC(=O)O)C(=O)O)[C@@H](C)O)[C@@H](C)CC)[C@@H](C)CC

The binders below were run against human glucagon-like peptide 1 receptor (GLP-1 R) (human, UniProt P43220 24-463) (assay: cell-based or functional assay).

| Binder | EC50 GLP-1 (nM); cAMP response [nM] |
| --- | --- |
| B1 | 0.13 |
| B2 | 0.27 |
| B3 | 0.042 |
| B4 | 0.31 |
| B5 | 0.49 |
| B6 | 0.13 |
| B7 | 0.65 |
| B8 | 0.16 |
| B9 | 0.084 |
| B10 | 0.66 |
| B11 | 0.17 |
| B12 | 0.058 |
| B13 | 0.92 |
| B14 | 0.22 |

These binders were tested against T1, human GLP-2 receptor (hGLP2-R) (assay: cell-based or functional assay).

| Binder | EC50 GLP-2 (nM); cAMP response [nM] |
| --- | --- |
| B1 | 0.2 |
| B2 | 0.15 |
| B3 | 0.33 |
| B4 | 0.17 |
| B5 | 0.2 |
| B6 | 0.35 |
| B7 | 0.18 |
| B8 | 0.22 |
| B9 | 0.1 |
| B10 | 0.087 |
| B11 | 0.063 |
| B12 | 0.12 |
| B13 | 0.019 |
| B14 | 0.039 |

Source: patent US20200297818A1 (ZEALAND PHARMA A S, published 2020)
